In the supplement of paper PMC10567573:

B1: PBXIP1 (parent)
chain: EKQKQPRWREGTKDSHDPLPSWAE
B2: BEX1 (parent)
chain: EENMERIGEEVRQLMEKLREKQLS

Variants of: B1
Assay: protein stability index of a GFP-peptide fusion (GPS, HEK-293T) (PSI 1-6); higher = more stable
Conditions: c terminus: a fixed tail appended
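Further: lentivirally expressed fusions sorted by FACS into six bins by GFP to DsRed ratio, PSI derived from sequencing read proportions per bin multiplied by bin number.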

Protein stability index: each site, then its substitutions
D17: C 3.64 | R 2.27 | K 1.24 | V 3.08 | Y 1.5 | I 1.48 | E 1.39 | S 1.86 | N 1.97 | L 1.58 | P 1.94 | A 1.39 | T 1.43
A23: L 4.81 | F 3.56 | E 2.39 | M 3.36 | P 3.89 | T 2.08 | H 4.04 | Q 2.26 | I 2.61 | K 4.51 | N 4.99 | S 2.01
T12: F 1.33 | A 2 | M 2.69 | I 2.34 | E 1.61 | R 2.71 | Y 1.01 | K 2.38 | H 2.89 | L 2.31
W22: E 5.99 | K 5.42 | R 5.4 | D 5.82 | A 5.8 | Y 4.85 | I 5.01 | H 5.32 | N 5.48 | P 5.49 | T 5.07 | L 3.24 | S 4.78 | Q 5.57
K2: R 2.02 | H 1.66 | W 1.43 | D 2.04 | Y 2.81 | P 1.77 | E 3.03 | Q 2.69 | C 2.96 | N 1.46 | S 2.15 | I 2.63 | F 1.85 | G 2.97
S21: G 2.93 | D 4.6 | Q 3.03 | L 2 | V 2.68 | T 2.62 | N 2.01 | F 2.54 | M 2.6 | I 2.56 | K 1.75 | Y 3.67 | E 3.19 | H 3.27 | W 4.58
D14: S 3.28 | M 1.96 | C 1.1 | Y 2.35 | F 1.46 | T 1.8 | Q 1.87 | K 2.66 | P 1.83
G11: Y 1.98 | Q 1.68 | D 2.02 | E 1.15 | H 3.13 | M 2.78 | L 2.31 | F 2.88 | R 1.46 | P 1.77 | S 2.61 | I 1.69
W8: D 3.2 | C 2.31 | E 3.08 | H 2.41 | M 2 | K 2.46 | F 1.88 | I 2.06 | R 2.54 | T 1.58 | G 2.04 | N 3.03 | Y 1.94 | A 2.09 | V 2.05
P6: E 1.89 | A 1.3 | F 2.43 | S 2.4 | H 2.53 | W 1.98 | C 1.48 | G 2.11 | L 2.79 | D 2.48 | T 3.31 | Y 3.67
E1: R 2.19 | G 1.66 | H 2.64 | A 2.67 | F 1.4 | Q 2 | T 2.38 | K 2.33 | L 2.19 | I 2.16 | P 1.22 | M 1.7 | C 2.08
Q3: G 2.03 | V 1.34 | H 1.78 | T 1.89 | C 2.21 | L 1.59 | Y 1.32 | N 2.58 | W 1.41 | S 1.55 | R 2.14 | P 1.63
K4: F 1.99 | T 1.92 | P 1.56 | D 1.72 | E 1.59 | M 1.54 | S 1.85 | Y 3 | N 2.02 | I 3.8 | H 2.66 | Q 1.92 | W 1 | A 1.72 | C 2.63 | G 1.89 | R 2.07 | V 1.21
P20: Q 2.45 | M 1.31 | D 1.79 | Y 1.75 | F 1.52 | N 1.88 | W 1.44 | H 2.22 | A 2.13 | R 2 | K 2.66 | I 2.48
R7: G 2.14 | A 1.59 | C 5.92 | M 1.94 | Y 1.47 | I 1.96 | P 2.33 | D 2.47 | K 2.02 | S 1.23 | L 1.32 | W 2.53 | T 1.57 | N 3.14 | F 2.54 | H 2.05
E10: T 3.55 | C 2.32 | R 2.2 | S 1.18 | W 1.53 | Q 1.83 | A 1.14 | F 2.27 | D 3 | K 2.34 | I 2.1 | L 1.96 | G 1.05
Q5: M 1.55 | K 2.18 | Y 2.37 | C 3.72 | H 2.11 | F 2.09 | E 2.66 | P 1.68 | N 2.1 | D 1.99 | A 3.71 | R 2.57 | L 1.82 | G 1.99
R9: A 1.79 | H 1.04 | D 1.76 | E 3.15 | M 2.35 | Q 1.34 | L 2.48 | P 1.84 | W 1.66 | S 1.39 | T 2.17 | K 2.32 | C 1.39 | I 1.89
H16: V 1.69 | K 1.93 | S 2.56 | M 1.07 | P 2.26 | C 3.68 | N 2.85 | I 1.98 | D 2.05 | Y 1.39 | E 3.06 | W 1.37
K13: Q 1.29 | C 1.28 | V 1.52 | N 2.35 | D 2.18 | A 2.15 | H 2.96
P18: S 1.29 | H 1.75 | D 1.75 | T 1.87 | Q 1.96 | M 1.88 | Y 1.95 | V 3.04 | N 1.92
L19: S 1.77 | G 2.56 | C 1.51 | D 1.99 | K 1.68 | R 2.86 | P 1.73 | N 2.49 | T 2.27 | E 3.44 | H 2.63
S15: M 3.08 | C 2.95 | G 1.68 | L 1.27 | P 1.26 | N 1.63 | A 2.65 | Q 1.8 | E 1.37 | K 2.02 | T 1.96 | W 1.54 | D 1.84

Variants of: B2
Assay: as above
Conditions: c terminus: a fixed tail appended

Protein stability index: each site, then its substitutions
L23: S 3.89 | V 3.88 | E 4.46 | Q 4.97 | D 5.21 | A 4.63 | F 4.58 | I 5.26 | T 5.19 | W 4.68 | C 4.73 | Y 5.23 | M 4.1 | H 4.65
S24: D 4.91 | G 4.78 | L 4.21 | K 3.54 | W 3.99 | I 3.97 | V 4.67 | F 4.32 | Q 4.95 | M 4.43 | T 4.29 | Y 3.91 | C 4.8
K21: Q 4.53 | S 4.25 | I 3.7 | W 4.07 | N 4.61 | Y 3.04 | T 5.02
Q22: D 4.73 | N 5.16 | P 3.67 | M 1.08 | W 2.28 | G 4.18 | A 2.82 | C 2.46 | S 3.92 | T 3.59
